Legend:
[1] = target: T1, myc-tagged CARD-12 (human, UniProt Q9NPP4 1-1024); assay: co-immunoprecipitation from 293T lysates (IP anti-T7, blot anti-myc)
T1 construct: Transiently overexpressed in 293T cells
Description: FIGS. 10A-10C depict the results of co-immunopreciptation analysis. FIG. 10A: After 24 hrs, extracts were prepared and immunoprecipitated (IP) with a monoclonal antibody to the T7 epitope. The immunoprecipitates were analyzed by SDS-PAGE and immunoblotted with an anti-myc polyclonal antibody. FIG. 10B: The cellular extracts were also immunoblotted (WB) with anti-T7 antibody. FIG. 10C: Extracts were also immunoprecipitated with a monoclonal antibody to myc, followed by WB with an anti-myc polyclonal antibody.
An additional mechanism by which CARD-12 may cause cell death is by the activation of upstream caspases via a CARD/CARD interaction. The proform of caspase-1 and caspase-9 both contain an N-terminal CARD. Therefore, caspase-1 and caspase-9 were investigated as possible CARD-12 signaling partners following transient overexpression in cells. Briefly, 293T cells transfected with plasmids were lysed in 50 mM Tris, pH 8.0, 120 mM NaCl, 1 mM EDTA, 0.5% Nonidet P-40 buffer and incubated with either a T7 (Sigma) or myc monoclonal antibody (SantaCruz Biotechnology, Inc.). The immune complexes were precipitated with protein G-Sepharose (Amersham Pharmacia Bio), washed extensively, and then subjected to SDS-polyacrylamide gel electrophoresis and immunoblotted with polyclonal antibody to myc (SantaCruz). […]

[2] = target: CARD domain of CARD-12 fused to the DNA-binding domain of pCMV-BD (self-association partner) (human); assay: cell-based or functional assay
[3] = target: CARD domain of CARD-5 (ASC) fused to the DNA-binding domain of pCMV-BD (UniProt Q9ULZ3 107-195); assay: cell-based or functional assay
Sequence of CARD domain of CARD-5 (ASC) fused to the DNA-binding domain of pCMV-BD (Q9ULZ3 whole entry, the tested form may be a part): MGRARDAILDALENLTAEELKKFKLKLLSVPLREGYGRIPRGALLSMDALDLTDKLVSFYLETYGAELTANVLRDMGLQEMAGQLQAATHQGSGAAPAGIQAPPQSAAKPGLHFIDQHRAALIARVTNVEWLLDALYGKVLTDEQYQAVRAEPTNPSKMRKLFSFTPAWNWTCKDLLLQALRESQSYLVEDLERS

B1: T7-tagged procaspase-9 (enzyme, UniProt P55211 1-416, looked up, not shown: small tags and cut ends)
chain: MDEADRRLLRRCRLRLVEELQVDQLWDALLSRELFRPHMIEDIQRAGSGSRRDQARQLIIDLETRGSQALPLFISCLEDTGQDMLASFLRTNRQAAKLSKPTLENLTPVVLRPEIRKPEVLRPETPRPVDIGSGGFGDVGALESLRGNADLAYILSMEPCGHCLIINNVNFCRESGLRTRTGSNIDCEKLRRRFSSLHFMVEVKGDLTAKKMVLALLELAQQDHGALDCCVVVILSHGCQASHLQFPGAVYGTDGCPVSVEKIVNIFNGTSCPSLGGKPKLFFIQACGGEQKDHGFEVASTSPEDESPGSNPEPDATPFQEGLRTFDQLDAISSLPTPSDIFVSYSTFPGFVSWRDPKSGSWYVETLDDIFEQWAHSEDLQSLLLRVANAVSVKGIYKQMPGCFNFLRKKLFFKTS
notes: Transiently overexpressed in 293T cells
- binding result [1]: no binding

B2: CARD domain of CARD-12 (residues 1-83) fused to the activation domain of pCMV-AD (plasmid pCMV-CARD-12-CARD/AD) (other, not shown: large carriers)
chain: MNFIKDNSRALIQRMGMTVIKQITDDLFVWNVLNREEVNIICCEKVEQDAARGIIHMILKKGSESCNLFLKSLKEWNYPLFQD
- relative luciferase activity (mammalian two-hybrid) [2]: 30 fold
- relative luciferase activity (mammalian two-hybrid) [3]: 10 fold

Reference: patent publication US20030190679A1 (Takeda / Millennium, published 2003)
